Source: US20220324969A1 (MYTHIC THERAPEUTICS, published 2022)

B1: MYT1166 (antibody, V domains shown)
VH: EVQLVQSGAEVKKPGSSVKVSCKASGYTITDHNIHWVRQAPGQSLEWIGYIHPYNGGTDYNQKFKNRATLTVDNPTNTAYMELSSLRSEDTDFYYCVNGNPWLAYWGQGTLVTVSS
VL: DIQLTQSPSTLSASVGDRVTITCRASESLDNYGIRFLTWFQQKPGKAPKLLMYAASNQGSGVPSRFSGSGSGTEFTLTISSLQPDDFATYYCQQTKEVPWSFGQGTKVEVK
notes: IgG; gemtuzumab VH combination #5 (S32H+Y52H)
B2: MYT1174 (antibody, V domains shown)
VH: EVQLVQSGAEVKKPGSSVKVSCKASGYTHTDHNIHWVRQAPGQSLEWIGYIYPYNGHTDYNQKFKNRATLTVDNPTNTAYMELSSLRSEDTDFYYCVNGNPWLAYWGQGTLVTVSS
VL: DIQLTQSPSTLSASVGDRVTITCRASESLDNYGIRFLTWFQQKPGKAPKLLMYAASNQGSGVPSRFSGSGSGTEFTLTISSLQPDDFATYYCQQTKEVPWSFGQGTKVEVK
notes: IgG; gemtuzumab VH combination #13 (I29H+S32H+G57H)
B3: MYT1180 (antibody, V domains shown)
VH: EVQLVQSGAEVKKPGSSVKVSCKASGYTITDHNIHWVRQAPGQSLEWIGYIYPHNGHTDYNQKFKNRATLTVDNPTNTAYMELSSLRSEDTDFYYCVNGNPWLAYWGQGTLVTVSS
VL: DIQLTQSPSTLSASVGDRVTITCRASESLDNYGIRFLTWFQQKPGKAPKLLMYAASNQGSGVPSRFSGSGSGTEFTLTISSLQPDDFATYYCQQTKEVPWSFGQGTKVEVK
notes: IgG; gemtuzumab VH combination #19 (S32H+Y54H+G57H)
B4: MYT1602 (antibody, V domains shown)
VH: EVQLVQSGAEVKKPGSSVKVSCKASGYTITDSNIHWVRQAPGQSLEWIGYIYPYNGGTDYNQKFKNRATLTVDNPTNTAYMELSSLRSEDTDFYYCVNGNPWLAYWGQGTLVTVSS
VL: DIQLTQSPSTLSASVGDRVTITCRASESLDNYGIRHLTWFQQKPGKAPKLLMYAASNQGSGVPSRFSGSGSGTEFTLTISSLQPDDFATYYCQQTKEVPWSFGQGTKVEVK
notes: IgG; gemtuzumab VL variant #13 (F36H)
B5: MYT1168 (antibody, V domains shown)
VH: EVQLVQSGAEVKKPGSSVKVSCKASGYTITDHNIHWVRQAPGQSLEWIGYIYPYNGHTDYNQKFKNRATLTVDNPTNTAYMELSSLRSEDTDFYYCVNGNPWLAYWGQGTLVTVSS
VL: DIQLTQSPSTLSASVGDRVTITCRASESLDNYGIRFLTWFQQKPGKAPKLLMYAASNQGSGVPSRFSGSGSGTEFTLTISSLQPDDFATYYCQQTKEVPWSFGQGTKVEVK
notes: IgG; gemtuzumab VH combination #7 (S32H+G57H)
B6: MYT1181 (antibody, V domains shown)
VH: EVQLVQSGAEVKKPGSSVKVSCKASGYTITDSNIHWVRQAPGQSLEWIGYIHPHNGHTDYNQKFKNRATLTVDNPTNTAYMELSSLRSEDTDFYYCVNGNPWLAYWGQGTLVTVSS
VL: DIQLTQSPSTLSASVGDRVTITCRASESLDNYGIRFLTWFQQKPGKAPKLLMYAASNQGSGVPSRFSGSGSGTEFTLTISSLQPDDFATYYCQQTKEVPWSFGQGTKVEVK
notes: IgG; gemtuzumab VH combination #20 (Y52H+Y54H+G57H)
B7: MYT1590 (antibody, V domains shown)
VH: EVQLVQSGAEVKKPGSSVKVSCKASGYTITDSNIHWVRQAPGQSLEWIGYIYPYNGGTDYNQKFKNRATLTVDNPTNTAYMELSSLRSEDTDFYYCVNGNPWLAYWGQGTLVTVSS
VL: DIQLTQSPSTLSASVGDRVTITCHASESLDNYGIRFLTWFQQKPGKAPKLLMYAASNQGSGVPSRFSGSGSGTEFTLTISSLQPDDFATYYCQQTKEVPWSFGQGTKVEVK
notes: IgG; gemtuzumab VL variant #1 (R24H)
B8: MYT1171 (antibody, V domains shown)
VH: EVQLVQSGAEVKKPGSSVKVSCKASGYTITDSNIHWVRQAPGQSLEWIGYIYPHNGHTDYNQKFKNRATLTVDNPTNTAYMELSSLRSEDTDFYYCVNGNPWLAYWGQGTLVTVSS
VL: DIQLTQSPSTLSASVGDRVTITCRASESLDNYGIRFLTWFQQKPGKAPKLLMYAASNQGSGVPSRFSGSGSGTEFTLTISSLQPDDFATYYCQQTKEVPWSFGQGTKVEVK
notes: IgG; gemtuzumab VH combination #10 (Y54H+G57H)
B9: MYT1596 (antibody, V domains shown)
VH: EVQLVQSGAEVKKPGSSVKVSCKASGYTITDSNIHWVRQAPGQSLEWIGYIYPYNGGTDYNQKFKNRATLTVDNPTNTAYMELSSLRSEDTDFYYCVNGNPWLAYWGQGTLVTVSS
VL: DIQLTQSPSTLSASVGDRVTITCRASESLHNYGIRFLTWFQQKPGKAPKLLMYAASNQGSGVPSRFSGSGSGTEFTLTISSLQPDDFATYYCQQTKEVPWSFGQGTKVEVK
notes: IgG; gemtuzumab VL variant #7 (D30H)
B10: MYT1178 (antibody, V domains shown)
VH: EVQLVQSGAEVKKPGSSVKVSCKASGYTITDHNIHWVRQAPGQSLEWIGYIHPHNGGTDYNQKFKNRATLTVDNPTNTAYMELSSLRSEDTDFYYCVNGNPWLAYWGQGTLVTVSS
VL: DIQLTQSPSTLSASVGDRVTITCRASESLDNYGIRFLTWFQQKPGKAPKLLMYAASNQGSGVPSRFSGSGSGTEFTLTISSLQPDDFATYYCQQTKEVPWSFGQGTKVEVK
notes: IgG; gemtuzumab VH combination #17 (S32H+Y52H+Y54H)
B11: MYT1601 (antibody, V domains shown)
VH: EVQLVQSGAEVKKPGSSVKVSCKASGYTITDSNIHWVRQAPGQSLEWIGYIYPYNGGTDYNQKFKNRATLTVDNPTNTAYMELSSLRSEDTDFYYCVNGNPWLAYWGQGTLVTVSS
VL: DIQLTQSPSTLSASVGDRVTITCRASESLDNYGIHFLTWFQQKPGKAPKLLMYAASNQGSGVPSRFSGSGSGTEFTLTISSLQPDDFATYYCQQTKEVPWSFGQGTKVEVK
notes: IgG; gemtuzumab VL variant #12 (R35H)
B12: MYT1597 (antibody, V domains shown)
VH: EVQLVQSGAEVKKPGSSVKVSCKASGYTITDSNIHWVRQAPGQSLEWIGYIYPYNGGTDYNQKFKNRATLTVDNPTNTAYMELSSLRSEDTDFYYCVNGNPWLAYWGQGTLVTVSS
VL: DIQLTQSPSTLSASVGDRVTITCRASESLDHYGIRFLTWFQQKPGKAPKLLMYAASNQGSGVPSRFSGSGSGTEFTLTISSLQPDDFATYYCQQTKEVPWSFGQGTKVEVK
notes: IgG; gemtuzumab VL variant #8 (N31H)
B13: MYT1177 (antibody, V domains shown)
VH: EVQLVQSGAEVKKPGSSVKVSCKASGYTHTDSNIHWVRQAPGQSLEWIGYIYPHNGHTDYNQKFKNRATLTVDNPTNTAYMELSSLRSEDTDFYYCVNGNPWLAYWGQGTLVTVSS
VL: DIQLTQSPSTLSASVGDRVTITCRASESLDNYGIRFLTWFQQKPGKAPKLLMYAASNQGSGVPSRFSGSGSGTEFTLTISSLQPDDFATYYCQQTKEVPWSFGQGTKVEVK
notes: IgG; gemtuzumab VH combination #16 (I29H+Y54H+G57H)
B14: MYT1167 (antibody, V domains shown)
VH: EVQLVQSGAEVKKPGSSVKVSCKASGYTITDHNIHWVRQAPGQSLEWIGYIYPHNGGTDYNQKFKNRATLTVDNPTNTAYMELSSLRSEDTDFYYCVNGNPWLAYWGQGTLVTVSS
VL: DIQLTQSPSTLSASVGDRVTITCRASESLDNYGIRFLTWFQQKPGKAPKLLMYAASNQGSGVPSRFSGSGSGTEFTLTISSLQPDDFATYYCQQTKEVPWSFGQGTKVEVK
notes: IgG; gemtuzumab VH combination #6 (S32H+Y54H)
B15: MYT1170 (antibody, V domains shown)
VH: EVQLVQSGAEVKKPGSSVKVSCKASGYTITDSNIHWVRQAPGQSLEWIGYIHPYNGHTDYNQKFKNRATLTVDNPTNTAYMELSSLRSEDTDFYYCVNGNPWLAYWGQGTLVTVSS
VL: DIQLTQSPSTLSASVGDRVTITCRASESLDNYGIRFLTWFQQKPGKAPKLLMYAASNQGSGVPSRFSGSGSGTEFTLTISSLQPDDFATYYCQQTKEVPWSFGQGTKVEVK
notes: IgG; gemtuzumab VH combination #9 (Y52H+G57H)
B16: MYT1179 (antibody, V domains shown)
VH: EVQLVQSGAEVKKPGSSVKVSCKASGYTITDHNIHWVRQAPGQSLEWIGYIHPYNGHTDYNQKFKNRATLTVDNPTNTAYMELSSLRSEDTDFYYCVNGNPWLAYWGQGTLVTVSS
VL: DIQLTQSPSTLSASVGDRVTITCRASESLDNYGIRFLTWFQQKPGKAPKLLMYAASNQGSGVPSRFSGSGSGTEFTLTISSLQPDDFATYYCQQTKEVPWSFGQGTKVEVK
notes: IgG; gemtuzumab VH combination #18 (S32H+Y52H+G57H)
B17: MYT1599 (antibody, V domains shown)
VH: EVQLVQSGAEVKKPGSSVKVSCKASGYTITDSNIHWVRQAPGQSLEWIGYIYPYNGGTDYNQKFKNRATLTVDNPTNTAYMELSSLRSEDTDFYYCVNGNPWLAYWGQGTLVTVSS
VL: DIQLTQSPSTLSASVGDRVTITCRASESLDNYHIRFLTWFQQKPGKAPKLLMYAASNQGSGVPSRFSGSGSGTEFTLTISSLQPDDFATYYCQQTKEVPWSFGQGTKVEVK
notes: IgG; gemtuzumab VL variant #10 (G33H)
B18: MYT1169 (antibody, V domains shown)
VH: EVQLVQSGAEVKKPGSSVKVSCKASGYTITDSNIHWVRQAPGQSLEWIGYIHPHNGGTDYNQKFKNRATLTVDNPTNTAYMELSSLRSEDTDFYYCVNGNPWLAYWGQGTLVTVSS
VL: DIQLTQSPSTLSASVGDRVTITCRASESLDNYGIRFLTWFQQKPGKAPKLLMYAASNQGSGVPSRFSGSGSGTEFTLTISSLQPDDFATYYCQQTKEVPWSFGQGTKVEVK
notes: IgG; gemtuzumab VH combination #8 (Y52H+Y54H)
B19: MYT1176 (antibody, V domains shown)
VH: EVQLVQSGAEVKKPGSSVKVSCKASGYTHTDSNIHWVRQAPGQSLEWIGYIHPYNGHTDYNQKFKNRATLTVDNPTNTAYMELSSLRSEDTDFYYCVNGNPWLAYWGQGTLVTVSS
VL: DIQLTQSPSTLSASVGDRVTITCRASESLDNYGIRFLTWFQQKPGKAPKLLMYAASNQGSGVPSRFSGSGSGTEFTLTISSLQPDDFATYYCQQTKEVPWSFGQGTKVEVK
notes: IgG; gemtuzumab VH combination #15 (I29H+Y52H+G57H)
B20: MYT1594 (antibody, V domains shown)
VH: EVQLVQSGAEVKKPGSSVKVSCKASGYTITDSNIHWVRQAPGQSLEWIGYIYPYNGGTDYNQKFKNRATLTVDNPTNTAYMELSSLRSEDTDFYYCVNGNPWLAYWGQGTLVTVSS
VL: DIQLTQSPSTLSASVGDRVTITCRASEHLDNYGIRFLTWFQQKPGKAPKLLMYAASNQGSGVPSRFSGSGSGTEFTLTISSLQPDDFATYYCQQTKEVPWSFGQGTKVEVK
notes: IgG; gemtuzumab VL variant #5 (S28H)
B21: MYT1593 (antibody, V domains shown)
VH: EVQLVQSGAEVKKPGSSVKVSCKASGYTITDSNIHWVRQAPGQSLEWIGYIYPYNGGTDYNQKFKNRATLTVDNPTNTAYMELSSLRSEDTDFYYCVNGNPWLAYWGQGTLVTVSS
VL: DIQLTQSPSTLSASVGDRVTITCRASHSLDNYGIRFLTWFQQKPGKAPKLLMYAASNQGSGVPSRFSGSGSGTEFTLTISSLQPDDFATYYCQQTKEVPWSFGQGTKVEVK
notes: IgG; gemtuzumab VL variant #4 (E27H)
B22: MYT1598 (antibody, V domains shown)
VH: EVQLVQSGAEVKKPGSSVKVSCKASGYTITDSNIHWVRQAPGQSLEWIGYIYPYNGGTDYNQKFKNRATLTVDNPTNTAYMELSSLRSEDTDFYYCVNGNPWLAYWGQGTLVTVSS
VL: DIQLTQSPSTLSASVGDRVTITCRASESLDNHGIRFLTWFQQKPGKAPKLLMYAASNQGSGVPSRFSGSGSGTEFTLTISSLQPDDFATYYCQQTKEVPWSFGQGTKVEVK
notes: IgG; gemtuzumab VL variant #9 (Y32H)

target: CD33 (Sino Biological, Cat #12238-H08H) (UniProt P20138 18-259); assay: BLI, IgG captured on anti-human Fc sensor, 50 nM CD33, pH 7.4 vs pH 5.4
Sequence (P20138 18-259 limits assumed): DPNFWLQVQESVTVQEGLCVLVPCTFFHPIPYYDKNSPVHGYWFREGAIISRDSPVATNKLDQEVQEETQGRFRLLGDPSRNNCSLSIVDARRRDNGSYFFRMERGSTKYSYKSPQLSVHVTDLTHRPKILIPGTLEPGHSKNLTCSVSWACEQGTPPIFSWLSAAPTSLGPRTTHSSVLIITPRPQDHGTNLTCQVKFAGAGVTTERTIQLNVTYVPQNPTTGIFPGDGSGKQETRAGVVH

Binding result, binds:
B1, B2, B3, B4, B5, B6, B7, B8, B9, B10, B11, B12, B13, B14, B15, B16, B17, B18, B19, B20, B21, B22
